{"source": "patent US20210371461", "proteins": {"B1": {"name": "tissue-type plasminogen activator (protein)", "chain": "SYQVICRDEKTQMIYQQHQSWLRPVLRSNRVEYCWCNSGRAQCHSVPVKSCSEPRCFNGGTCQQALYFSDFVCQCPEGFAGKCCEIDTRATCYEDQGISYRGTWSTAESGAECTNWNSSALAQKPYSGRRPDAIRLGLGNHNYCRNPDRDSKPWCYVFKAGKYSSEFCSTPACSEGNSDCYFGNGSAYRGTHSLTESGASCLPWNSMILIGKVYTAQNPSAQALGLGKHNYCRNPDGDAKPWCHVLKNRRLTWEYCDVPSCSTCGLRQYSQPQFRIKGGLFADIASHPWQAAIFAKHRRSPGERFLCGGILISSCWILSAAHCFQERFPPHHLTVILGRTYRVVPGEEEQKFEVEKYIVHKEFDDDTYDNDIALLQLKSDSSRCAQESSVVRTVCLPPADLQLPDWTECELSGYGKHEALSPFYSERLKEAHVRLYPSSRCTSQHLLNRTVTDNMLCAGDTRSGGPQANLHDACQGDSGGPLVCLNDGRMTLVGIISWGLGCGQKDVPGVYTKVTNYLDWIRDNMRP"}, "B2": {"name": "plasmin (protein)", "chain": "KVYLSECKTGNGKNYRGTMSKTKNGITCQKWSSTSPHRPRFSPATHPSEGLEENYCRNPDNDPQGPWCYTTDPEKRYDYCDILECEEECMHCSGENYDGKISKTMSGLECQAWDSQSPHAHGYIPSKFPNKNLKKNYCRNPDRELRPWCFTTDPNKRWELCDIPRCTTPPPSSGPTYQCLKGTGENYRGNVAVTVSGHTCQHWSAQTPHTHNRTPENFPCKNLDENYCRNPDGKRAPWCHTTNSQVRWEYCKIPSCDSSPVSTEQLAPTAPPELTPVVQDCYHGDGQSYRGTSSTTTTGKKCQSWSSMTPHRHQKTPENYPNAGLTMNYCRNPDADKGPWCFTTDPSVRWEYCNLKKCSGTEASVVAPPPVVLLPDVETPSEEDCMFGNGKGYRGKRATTVTGTPCQDWAAQEPHRHSIFTPETNPRAGLEKNYCRNPDGDVGGPWCYTTNPRKLYDYCDVPQCAAPSFDCGKPQVEPKKCPGRVVGGCVAHPHSWPWQVSLRTRFGMHFCGGTLISPEWVLTAAHCLEKSPRPSSYKVILGAHQEVNLEPHVQEIEVSRLFLEPTRKDIALLKLSSPAVITDKVIPACLPSPNYVVADRTECFITGWGETQGTFGAGLLKEAQLPVIENKVCNRYEFLNGRVQSTELCAGHLAGGTDSCQGDSGGPLVCFEKDKYILQGVTSWGLGCARPNKPGVYVRVSRFVTWIEGVMRNN"}, "B3": {"name": "factor XIIa (protein)", "chain": "IPPWEAPKEHKYKAEEHTVVLTVTGEPCHFPFQYHRQLYHKCTHKGRPGPQPWCATTPNFDQDQRWGYCLEPKKVKDHCSKHSPCQKGGTCVNMPSGPHCLCPQHLTGNHCQKEKCFEPQLLRFFHKNEIWYRTEQAAVARCQCKGPDAHCQRLASQACRTNPCLHGGRCLEVEGHRLCHCPVGYTGAFCDVDTKASCYDGRGLSYRGLARTTLSGAPCQPWASEATYRNVTAEQARNWGLGGHAFCRNPDNDIRPWCFVLNRDRLSWEYCDLAQCQTPTQAAPPTPVSPRLHVPLMPAQPAPPKPQPTTRTPPQSQTPGALPAKREQPPSLTRNGPLSCGQRLRKSLSSMTRVVGGLVALRGAHPYIAALYWGHSFCAGSLIAPCWVLTAAHCLQDRPAPEDLTVVLGQERRNHSCEPCQTLAVRSYRLHEAFSPVSYQHDLALLRLQEDADGSCALLSPYVQPVCLPSGAARPSETTLCQVAGWGHQFEGAEEYASFLQEAQVPFLSLERCSAPDVHGSSILPGMLCAGFLEGGTDACQGDSGGPLVCEDQAAERRLTLQGIISWGSGCGDRNKPGVYTDVAYYLAWIREHTVS"}}, "target": "T1, MePEG2-IEGR (TFA salt)", "T1 chain": "IEGR", "data": [{"protein": "B1", "values": [{"measurement": "luminescence signal (RLU) from substrate cleavage, 193 IU/mL enzyme", "result": "193 IU/mL tPA yielded ˜6.000 RLU"}]}, {"protein": "B2", "values": [{"measurement": "luminescence signal (RLU) from substrate cleavage, 8 nM enzyme", "result": "8 nM plasmin yielded ˜8.000 RLU"}]}, {"protein": "B3", "values": [{"measurement": "luminescence signal (RLU) from substrate cleavage, 145 nM enzyme", "result": 145, "unit": "nM FXlla yielded ˜500 RLU"}]}]}
